Results published in IntAct's records for PubMed 20865002.

B1: Serine/threonine-protein kinase RAD53 (Saccharomyces cerevisiae), P22216 (parent)
chain: MENITQPTQQSTQATQRFLIEKFSQEQIGENIVCRVICTTGQIPIRDLSADISQVLKEKRSIKKVWTFGRNPACDYHLGNISRLSNKHFQILLGEDGNLLLNDISTNGTWLNGQKVEKNSNQLLSQGDEITVGVGVESDILSLVIFINDKFKQCLEQNKVDRIRSNLKNTSKIASPGLTSSTASSMVANKTGIFKDFSIIDEVVGQGAFATVKKAIERTTGKTFAVKIISKRKVIGNMDGVTRELEVLQKLNHPRIVRLKGFYEDTESYYMVMEFVSGGDLMDFVAAHGAVGEDAGREISRQILTAIKYIHSMGISHRDLKPDNILIEQDDPVLVKITDFGLAKVQGNGSFMKTFCGTLAYVAPEVIRGKDTSVSPDEYEERNEYSSLVDMWSMGCLVYVILTGHLPFSGSTQDQLYKQIGRGSYHEGPLKDFRISEEARDFIDSLLQVDPNNRSTAAKALNHPWIKMSPLGSQSYGDFSQISLSQSLSQQKLLENMDDAQYEFVKAQRKLQMEQQLQEQDQEDQDGKIQGFKIPAHAPIRYTQPKSIEAETREQKLLHSNNTENVKSSKKKGNGRFLTLKPLPDSIIQESLEIQQGVNPFFIGRSEDCNCKIEDNRLSRVHCFIFKKRHAVGKSMYESPAQGLDDIWYCHTGTNVSYLNNNRMIQGTKFLLQDGDEIKIIWDKNNKFVIGFKVEINDTTGLFNEGLGMLQEQRVVLKQTAEEKDLVKKLTQMMAAQRANQPSASSSSMSAKKPPVSDTNNNGNNSVLNDLVESPINANTGNILKRIHSVSLSQSQIDPSKKVKRAKLDQTSKGPENLQFS
partner: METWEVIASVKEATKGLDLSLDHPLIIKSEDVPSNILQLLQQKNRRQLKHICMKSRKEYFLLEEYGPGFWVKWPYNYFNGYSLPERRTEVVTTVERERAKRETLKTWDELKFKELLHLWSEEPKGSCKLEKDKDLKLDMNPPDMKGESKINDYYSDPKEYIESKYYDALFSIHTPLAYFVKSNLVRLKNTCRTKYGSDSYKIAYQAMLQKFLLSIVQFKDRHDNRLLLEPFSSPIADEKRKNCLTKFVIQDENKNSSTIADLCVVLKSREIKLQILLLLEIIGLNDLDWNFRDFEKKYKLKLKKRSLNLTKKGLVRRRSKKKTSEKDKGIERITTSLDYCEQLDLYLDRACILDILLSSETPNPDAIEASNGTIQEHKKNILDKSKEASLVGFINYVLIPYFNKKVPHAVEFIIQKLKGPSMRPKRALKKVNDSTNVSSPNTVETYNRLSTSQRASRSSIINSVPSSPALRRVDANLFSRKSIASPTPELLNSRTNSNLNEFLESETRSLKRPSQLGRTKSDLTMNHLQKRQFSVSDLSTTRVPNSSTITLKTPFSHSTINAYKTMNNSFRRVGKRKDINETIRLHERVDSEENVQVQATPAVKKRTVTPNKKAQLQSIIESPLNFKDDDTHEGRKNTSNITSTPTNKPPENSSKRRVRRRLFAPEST

Variants of: B1
Conditions: with sld3_yeast SLD3, P53135

effect of a mutation on the interaction | Variant
disrupting interaction | K227A
